Experimental data: the RNAGym collection of RNA variant scans (doi:10.1073/pnas.2313332121)

B1: TPR t1 (parent)
chain: GACCAAUCUGCCCUCAGAGCUCGAGAACAUCUUCGGAUGCAGAGGAGGCAGGCUUCGGUGGCGCGAUAGCGCCAACGUCCUCAACCUCCAAUGCAUCCCACCACAUGAUGAUGCCUGAAGAGCCUUGGUUUUUUG

Variants of: B1
Assay: polymerase ribozyme fitness, log enrichment relative to wild type (log ratio); higher = more active; in vitro selection for triplet polymerase activity
In short: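 Mutant libraries for each subunit of a heterodimeric triplet polymerase ribozyme were made by PCR and then transcribed. Each library underwent one round of in vitro selection in triplicate: annealing with a biotinylated primer, the partner subunit and triplets, frozen incubation at −7 °C, gel excision of extended constructs, streptavidin-bead capture and RT-PCR. Input and output libraries were Illumina-sequenced, and only genotypes with ≥10 input reads and ≥1 read per output were kept. Fitness is the logarithm, base 2, of genotype enrichment over wild-type enrichment, computed from inverse-variance-weighted replicate averages.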
In the case of GACUAAUCUGCCCUCAGAGCUCGAGAACAUCUUCGGAUGCCGAGGAGGCAGGCUUCGGUGGCGCGAUAGCGCCAACGUCCUCAACCUCCAAUGCAUCCCACCACAUGAUGAUGCCUGAAGAGCCUUGGUUUUUUG [C4U A41C], the “polymerase ribozyme fitness (log ratio)” value is reported as -1.67. For GACCAAUCUGCCAUCAGAGCUCGAGAACAUCUUCGGACGCAGAGGAGGGAGGCUUCGGUGUCGCGAUAGCGCCAACGUCCUCAACCUCCAAUGCAUCCCACCACAGGAUGAUGCGUGAAGAGCCUUGGUUUUUUC [C13A U38C C49G G61U U106G C115G G135C], the “polymerase ribozyme fitness (log ratio)” value was -6. In the case of GACCAAUCUGCCCUCAGAGCUCGAGAACAUCUUCGGAUGCAGAGGAGGCAGGCUUCGGUGGCCCGAUAGCGCCAACGUCCUCAACCUCCAAUGCAUCCCACAACAUGAUGAAGCCUGAAGAGCCUUGGUUUUUUG [G63C C102A U112A], the “polymerase ribozyme fitness (log ratio)” value is reported as -1.64. For GACCAAUCGGCCCUCAGAGCUCGAGAACAUCUUCGGAUGCAGAGGAGGCAGGCUUCGGUGGCGCGAUAGCGCCAACGUCUUCAACCUCCAAUGCAUCUCACCACAUGAUUAUGCCUGAAGAGCCUUGGUUUUUUG [U9G C80U C98U G110U], the “polymerase ribozyme fitness (log ratio)” value was -3.68. With GACCAAUCUGCCCUCAGAGCUCGAGAACAUCUUCGGAUGCAGAGGAGGCAGGCUUCGGUUGCGCGAUAGCGCCAACGUCCUCAACUUCCAAUGCAUCCCACCACAUGAUGAUGCCUGAAGAGCCUUGGUUUUUUG [G60U C86U] the “polymerase ribozyme fitness (log ratio)” value was -1.37. With GACCAAUCUGCCGUCAGAGCUCGAGAACAUCUUAGGAUGCAGAGGAGGCAGGCUUCGGUGGCGCGAUAGCGCCAACGUCCUCAACCUCCAAUGCAUCCCACCACAUGAUGAUGCCUGAAGAGCCUUGGUUUUUUG [C13G C34A] the “polymerase ribozyme fitness (log ratio)” value was -4.26. For GACCAAUCUGCCCUCGGAGCUCGAGAACAUCUUCAGGUGCAGAGGAGGCAGGCUUCGGUGGCGCGAUAGCGCCAACGUCCUCAUCCUCCAAUGCAUCCCACCACAUGAUGAUGCCUGAAGGGCCUUGGUUUUUUG [A16G G35A A37G A84U A121G], the “polymerase ribozyme fitness (log ratio)” value was -3.58. In the case of GACCAAUCUGCCCUCAGAACUCGAGAACAUCUUCGGAUGCAGAGGAGGCAGGCUUCGGUGGCGCGAUAGCGCCAACGGCCUCAUCCUCCAAUGCAUCCCACCACAUGAUGAUGCUUGAAGCGCCUUGGUUUUUUG [G19A U78G A84U C115U A121C], the “polymerase ribozyme fitness (log ratio)” value is reported as -5.73. In the case of GACCAAUCUGCCCUCAGAGCUCGAGAACAUCUUGGGAUGCAGAGGAGGUAGGCUUCGGUGGCGCGAUAGCGCCAACGUCCUCAACCUCCAAUGCAUUCCACCACAUGAUGAUGGCUGAAGAGCCUUGGUUUUUUG [C34G C49U C97U C114G], the “polymerase ribozyme fitness (log ratio)” value is reported as -7.24. For GACCAAUCUGCCCUCAGAGCUCGAGAUCAUCUUCGGAUGCAGAGGAGGCAGGCUUCGGUGGCGCGAUAGCGUCAACGUCCUCAACCUCCAAUGCAUCCCACCACAUGAUGAUGCCUGAAGAGCCUUGGUUUUUUG [A27U C72U], the “polymerase ribozyme fitness (log ratio)” value was -3.48. In the case of GAUCAAUCUGCCCUCAGAGCUCGAGAACAUCUUCGGAUGCAGAGGAGGCAGGCUUCGGUGGCGCGAUAGCUCCAACGUCCUCAACCUCCAAUGCAUCCCACCACAUGAUGAUGCCUGAAGAGCCUUGGUUUUUUG [C3U G71U], the “polymerase ribozyme fitness (log ratio)” value is reported as -0.48. For GAACAAUCUGCCCUCAGAGCUCGAGAACAUCUUCGGAUGCAGAGGAGGCAGGCUUCGGUGGCGCGAUAGCGCCCACGUCCUCAACCUCCAAUGCAUCCCACCACAUGAUGAUGCCUGAAGAGCCUUGGUUUUUUG [C3A A74C], the “polymerase ribozyme fitness (log ratio)” value was -2.99. In the case of GACCAAUCUGCCCUCAGAGCUCGGGAACAUCUUCGCAUGCAGAGGAGGAAGGCUUCGGUGGCUCGAUAGCGCCAACGUCCUCAACCUCCAAUGCAUCCCACCACAUGAUGAUGCCUGAAGAGCCUUGGUUUUUUG [A24G G36C C49A G63U], the “polymerase ribozyme fitness (log ratio)” value is reported as -4.77. In the case of GACCAAUCUGCGCUCAGAGCUCGAGAACAUCUUCGGAUGCACAGGAGGCAGGCUUCGGUGGCGCGAUAGAGCCAACGACCUCAACCUCCAUUGCAUCCCACCACAUGAUGAUGCCUGAAGAGCCUUGGUUUUUUG [C12G G42C C70A U78A A91U], the “polymerase ribozyme fitness (log ratio)” value is reported as -5.9. For GACCAAUCUGCCCUCAGAGAUCGAGAACAUCUUCGGAUGCAUAGGAGGCAGGCUUCGGUAGCGCGAUAGCGCCAACGUCCUCAACCUCCAAUGCAUCCCACCACAUGAUGAUGCCUGAAGAGCCUUGGUUUUUUG [C20A G42U G60A], the “polymerase ribozyme fitness (log ratio)” value was -3.62. With GACCAAUCUGCCCUCAGAGCUCGAGAACAUCUUCGGAUGUAGAGGAGGCAGGCUUCGGUGGCGCGAUAGCGCCAACGUCCUCAACCUCCAAUGCAUCCCACCACAUGAUGAUGCCGGAAGAGCCUUGGUUUUUUG [C40U U116G] the “polymerase ribozyme fitness (log ratio)” value was -2.61. With GACCAAUCUGCCCUCAGAGCUCGAGAACAUCUUCGGAUGCCGAGGAGGCAGGCUUCGGUGGCGCGAUAGUCCCAACGUCCUCAACCUCCAAUGCAUCCCACCACAUGAUGAUGCCUUAAGAGACUUGAUUUUUUG [A41C C70U G71C G117U C123A G128A] the “polymerase ribozyme fitness (log ratio)” value was -6.8. For GACCAAUCUGCCCUCAGAGCUCGAGAACAUCUUCGGAUCCAGAGGAGGCAGGCUUCGGUGGCGCUAUAGCGCCAACGUCCUCAACCUCCAAUGCAUCCCACCACAUGAUGAUGCCUGAAGAGCCUUGGUUUUUUG [G39C G65U], the “polymerase ribozyme fitness (log ratio)” value was -6.02. With GACCAAUCUGCCCUCAGCGCUCGAGAACAUCUUCGGAUGCAGAGGAGGCAGGAUUCGGUGGUGCGAUAGCGUCAACGUCCUCAAGCUCCAAUGCAUCCCACCACAUGAUGAUGCCUGAAGAUCCUUGGUUUUUUG [A18C C53A C62U C72U C85G G122U] the “polymerase ribozyme fitness (log ratio)” value was -4.78. With GACCAAUGUGUCCUCAGAGCUCGAGAACAUCUUCGGAUGCAGAGGAGGCAGGCUUCGGUGGCGCGAUAGCGCCAACGUCCUCAACCUCCAAUGCAUCCCACCACAUGAUGAUGCCUGAAAAGCCUUGGUUUUUUG [C8G C11U G120A] the “polymerase ribozyme fitness (log ratio)” value was 2.17. With GACCAAUUUGCCCACAGAGCUCGAGAACAUCUUCGGAUGCAGAGGUGGCAGGCUUUGGUGGCGCGAUAGCGCCAACGUCCUCAACCUCCAAUGCAUCCCACCACAUGAUGAUGCCUGAAGAGCCUUGGUUUUUUG [C8U U14A A46U C56U] the “polymerase ribozyme fitness (log ratio)” value was -1.92.
